Target: UB (ubiquitin)
Assay: SEC-MALS
Settings: reference: unphosphorylated PARKIN; sites S65

## PARKIN (from UniProt O60260) p-PARKIN
  other: mass increase on p-UB addition: same; reference ~7
